Columns and labels:
[1] = molecular target: T1, BA.4/5 RBD with BAP-His tag, biotinylated (SARS-CoV-2 Omicron BA.4/5, L452R | F486V | T478K | E484A | N501Y, biotin (on the BAP tag, by co-expressed ER-localized biotin ligase BirA)); experiment: SPR; conditions: both partners purified
[2] = molecular target: T1, BA.4/5 RBD with BAP-His tag, …; experiment: cell-based or functional assay

B1: Omi-32 Fab (Fab, V domains shown)
VH: EVQLVESGGGVVQPGRSLRLSCAASGFTFSNYGMHWVRQAPGKGLEWVAVYWYDGGNKFYADSVKGRFTISRDNSKNTLYLQMNSLRVEDTAVYYCARDTAPPDYWGQGTLVTVSS
VL: AIRMTQSPGTLSLSPGERATLSCRASQSISSSFLAWYQQKPGQAPRLLIYGASSRATGIPDRFSGSGSGTDFTLTISRLEPEDFAVYYCQQYGTSPRLTFGGGTKVDIK
fold increase in on-rate against BA.2 RBD [1]: 5 fold | pseudoviral neutralization of BA.4/5, fold enhancement compared to BA.2 [2]: 77 fold
